# Source: patent US7078514 (dated 2006)
# No end group written: not given here.
# Target: T1, recombinant chicken GHRH receptor (chicken)
# T1 construct: Full-length cloned receptor; also called cGHRH receptor; cloned chicken GHRH receptor
# T1 chain: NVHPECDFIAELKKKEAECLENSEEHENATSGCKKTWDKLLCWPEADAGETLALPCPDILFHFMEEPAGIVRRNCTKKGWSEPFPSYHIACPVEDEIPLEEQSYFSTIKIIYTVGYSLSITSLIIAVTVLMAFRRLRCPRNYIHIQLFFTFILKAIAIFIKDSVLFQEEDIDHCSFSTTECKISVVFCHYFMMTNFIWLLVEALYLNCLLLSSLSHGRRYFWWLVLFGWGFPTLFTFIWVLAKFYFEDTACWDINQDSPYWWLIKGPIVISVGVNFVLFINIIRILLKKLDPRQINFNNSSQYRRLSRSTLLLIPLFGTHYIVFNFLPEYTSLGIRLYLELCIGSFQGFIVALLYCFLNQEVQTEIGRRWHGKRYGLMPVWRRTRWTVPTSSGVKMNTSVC
# Test: competition with labeled hGHRH at recombinant chicken GHRH receptor
binder,measurement,value
"HADGIFSKAYRKLLGQLSARNYLHSLMAKRVGGASSGLGDEAEPLS (ligand, not fully specified, also called cGHRH(Asp^21); published polypeptide) [chicken GHRH polypeptide (asparagine^21), previously reported chicken GHRH]",binding result,no binding
